Experimental data published in patent US11078246B2, “Peptides binding to Bfl-1” (Dana-Farber Cancer Institute, Inc., priority 2015, dated 2021).
Changes are numbered by the printed parent chain. Positions of bridges follow the written chain, without caps; N, C: chain ends. Non-standard residues stand in square brackets, D forms with d. No end group written: not given here. S5 = C=CCCC[C@](C)(N)C(=O)O

Legend:
Bfl-1 [1] = target: T1, Bfl-1 (Homo sapiens, UniProt Q16548); assay: Competitive binding assay after pre-forming the Bfl-1:NOXA disulfide bond; conditions: Bfl-1:NOXA disulfide bond pre-formed
T1 sequence (Q16548 1-175): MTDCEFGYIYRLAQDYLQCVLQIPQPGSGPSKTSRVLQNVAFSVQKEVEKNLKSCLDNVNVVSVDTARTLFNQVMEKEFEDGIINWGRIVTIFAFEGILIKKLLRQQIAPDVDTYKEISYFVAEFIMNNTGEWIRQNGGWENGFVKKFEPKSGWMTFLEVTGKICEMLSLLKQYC
Description: The functional impact of the Bfl-1:NOXA disulfide bond formation was evaluated using competitive binding assays and liposomal release assays.

MCL-1ΔNΔC = target: T2, MCL-1ΔNΔC (Homo sapiens, UniProt Q07820); assay: In vitro covalent conjugation assay (oxidizing conditions); assay type: binding
T2 construct: MCL-1ΔNΔC (aa 170-327) and BCL-XLΔC (aa 1-212) constructs were cloned into pGEX-4T-1; GST (N, cleaved yes); made in house; host or cells: Escherichia coli BL21(DE3)

Bfl-1 [2] = target: T1, Bfl-1; assay: Liposomal release assay (Bfl-1 inhibition of BAX activation); assay type: biochemical
Description: Fluorescence polarization assay: The solution-state equilibrium binding assay was used to determine binding affinities of the stapled peptides to the anti-apoptotic proteins. Proteins were serially diluted from 1 μM, then combined with FITC-labeled SAHB and polarization measured at 5 min on a microplate reader. We then calculated dissociation constants (KD) by nonlinear regression analysis of dose-response curves. Bfl-1:NOXA conjugation assay: The conjugation assay was developed to test for disulfide bond formation in a non-reducing environment, 3:1 FITC-stapled peptide:protein molar ratio was combined in the presence of DTT, then diluted and incubated with 1.2 molar excess GSSG. Samples were then run on non-reducing SDS-PAGE, scanned for fluorescence, then stained with Coomassie. […] ANTS release and dequenching due to DPX dissociation (F) was measured over a period of 120 min with an M1000 Infinite plate reader (Tecan) with excitation and emission wavelengths of 355 nm and 520 nm, respectively. Plates were read following liposome lysis with 1% Triton X-100 to determine maximal release (F100). Percent ANTS/DPX release was calculated as […]. […]

BCL-XLΔC = target: T3, BCL-XLΔC (Homo sapiens, UniProt Q07817); assay: In vitro covalent conjugation assay (oxidizing conditions); assay type: binding
T3 construct: MCL-1ΔNΔC (aa 170-327) and BCL-XLΔC (aa 1-212) constructs were cloned into pGEX-4T-1; GST (N, cleaved yes); made in house; host or cells: Escherichia coli BL21(DE3)

BFL-1ΔC [3] = target: T4, BFL-1ΔC (Homo sapiens, UniProt Q16548, C19S/C4S/C55S); assay: In vitro covalent conjugation assay (DTT reduction, GSSG oxidation); assay type: binding; conditions: Coomassie, FITC scan
T4 construct: cDNA encoding BFL-1ΔC (aa 1-153) was cloned into the pET19b expression vector; made in house; host or cells: Escherichia coli BL21(DE3) LOBSTR
T4 sequence (Q16548 1-153 C4S/C19S/C55S): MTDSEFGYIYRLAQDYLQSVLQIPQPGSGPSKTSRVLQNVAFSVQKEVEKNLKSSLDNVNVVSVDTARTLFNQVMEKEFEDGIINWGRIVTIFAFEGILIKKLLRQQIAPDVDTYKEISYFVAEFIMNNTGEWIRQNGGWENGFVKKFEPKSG
Description: (§1) Biolayer Interferometry: Binding analyses of NOXA peptide interactions with BFL-1ΔC were performed on an Octet RED384 system (Fortebio, Menlo Park, Calif.) at 30° C. Super streptavidin (SSA) tips were prewetted in 1× kinetics buffer (PBS, pH 7.4, 0.01% BSA, 0.002% Tween-20) and then conjugated to NOXA SAHBs bearing an N-terminal biotin-PEG linker (10 μg/mL). Excess streptavidin was quenched by incubation with 2 μg/mL biocytin. The tips were then washed with kinetics buffer and soaked in a serial dilution of BFL-IAC for 10 min to measure association rate, followed by a 15 min incubation in kinetics buffer to measure dissociation rate. Dissociation constants were calculated using Octet Data Analysis version 9.0. […] After this incubation in a reducing environment, the mixture was diluted 5-fold into 50 mM Tris pH 8.0, 100 mM NaCl, 12 mM GSSG and incubated in the dark for an additional 30 min at RT. […] The gel was rinsed with water, subjected to FITC scan (Typhoon FLA 9500, GE Healthcare) and then Coomassie staining.

BFL-1ΔC [4] = target: T5, BFL-1ΔC (Homo sapiens, UniProt Q16548); assay: as above; assay type: binding; conditions: DTT 10 mM then GSSG 12 mM; Coomassie, FITC scan
T5 construct: cDNA encoding BFL-1ΔC (aa 1-153) was cloned into the pET19b expression vector; made in house; host or cells: Escherichia coli BL21(DE3) LOBSTR
T5 sequence (Q16548 1-153): T4 sequence (Q16548 1-153 C4S/C19S/C55S) with S4C, S19C, S55C
Description: as §1

BFL-1ΔC [5] = target: T6, BFL-1ΔC (Homo sapiens, UniProt Q16548, C19S/C4S); assay: as above; assay type: binding; conditions: Coomassie, FITC scan
T6 construct: cDNA encoding BFL-1ΔC (aa 1-153) was cloned into the pET19b expression vector; made in house; host or cells: Escherichia coli BL21(DE3) LOBSTR
T6 sequence (Q16548 1-153 C4S/C19S): T4 sequence (Q16548 1-153 C4S/C19S/C55S) with S55C
Description: as §1

Bfl-1 [6] = target: T1, Bfl-1; assay: Bfl-1:NOXA conjugation assay (disulfide bond, GSSG oxidation); assay type: binding; conditions: non-reducing SDS-PAGE
Description: Next, the impact of the Cys25 in NOXA was investigated. […] The distance between the sulfurs of the cysteine residues is 3.5 A according to the previously determined crystal structure of the bound proteins (PDB ID 3MQP). […] To examine the impact of Cys25 in NOXA on target interaction, we examined the binding of WT NOXA SAHB and NOXA C25S SAHB to Bfl-1 and to a variety of Bfl-1 cysteine mutants. In vitro conjugation assays were performed in order to verify the formation of the disulfide bond. Global reduction of the protein and the NOXA peptides, followed by the introduction of an oxidant such as GSSG led to production of a disulfide bond, shown as a 3 kDa shift on non-reducing SDS-PAGE (FIG. 4A). […] (FIG. 4A).
Fluorescence polarization assay: The solution-state equilibrium binding assay was used to determine binding affinities of the stapled peptides to the anti-apoptotic proteins. Proteins were serially diluted from 1 μM, then combined with FITC-labeled SAHB and polarization measured at 5 min on a microplate reader. We then calculated dissociation constants (KD) by nonlinear regression analysis of dose-response curves. […] Samples were then run on non-reducing SDS-PAGE, scanned for fluorescence, then stained with Coomassie. […] Plates were read following liposome lysis with 1% Triton X-100 to determine maximal release (F100). Percent ANTS/DPX release was calculated as […]. […]

GST-MCL-1ΔNΔC = target: T7, GST-MCL-1ΔNΔC (Homo sapiens, UniProt Q07820); assay: Streptavidin pull-down from anti-apoptotic protein mixture; assay type: binding; conditions: 1:1:1:1 mixture, 1 μM each, biotinylated SAHB
T7 construct: MCL-1ΔNΔC (aa 170-327) and BCL-XLΔC (aa 1-212) constructs were cloned into pGEX-4T-1; made in house; host or cells: Escherichia coli BL21(DE3)
Description: Streptavidin Pull-down: Recombinant His-BFL-1ΔC, BCL-XLΔC (tagless) and GST-MCL-1ΔNΔC (1 μM each) were combined and reduced with 3 mM DTT in PBS for 30 min at RT, and then incubated with 1 μM biotinylated SAHBA, SAHBA-3 or vehicle for 4 h at RT. The mixtures were then combined with PBS-washed high-capacity SA agarose (Thermo Fisher Pierce) and incubated with rotation for 2 h at RT. The beads were centrifuged at 3000 rpm, washed twice with NP-40 lysis buffer (1% NP40, 50 mM Tris pH 8.0, 100 mM NaCl, 2.5 mM MgCl2), once with PBS, and then bound protein eluted by boiling in 10% SDS containing 10 mg/mL biotin. Inputs (10%) and eluates were electrophoresed on a 12% Bis-Tris gel and then subjected to silver stain and imaging.

T3 sequence (Q07817 1-212, stated change not applied): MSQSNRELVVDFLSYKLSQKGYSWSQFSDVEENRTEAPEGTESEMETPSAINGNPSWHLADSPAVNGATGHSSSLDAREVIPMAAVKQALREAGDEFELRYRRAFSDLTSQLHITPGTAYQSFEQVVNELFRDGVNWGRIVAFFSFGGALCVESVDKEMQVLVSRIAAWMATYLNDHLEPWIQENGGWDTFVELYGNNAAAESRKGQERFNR
T2 sequence (Q07820 170-327, stated change not applied): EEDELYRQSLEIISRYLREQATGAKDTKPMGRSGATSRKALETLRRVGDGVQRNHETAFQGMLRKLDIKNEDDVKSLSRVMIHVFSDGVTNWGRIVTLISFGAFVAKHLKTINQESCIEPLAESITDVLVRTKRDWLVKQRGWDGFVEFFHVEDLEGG
T7 sequence (Q07820 170-327, stated change not applied): as above

NOXA SAHBA: stapled NOXA BH3 (aa 19-43), i, i+4 hydrocarbon staple replacing R31 and K35, native C25; SEQ ID NO:9 (AELEVECATQLR[S5]FGD[S5]LNFRQKLL; staple 13-17)
availability of the Bfl-1 binding pocket to another FITC BH3 domain (Bfl-1 [1]): significantly decreased the availability of the Bfl-1 binding pocket
molecular weight shift or FITC labeling of MCL-1ΔNΔC (MCL-1ΔNΔC): no molecular weight shift or FITC labeling
anti-apoptotic effects of Bfl-1 on BAX (Bfl-1 [2]; Bfl-1:NOXA disulfide bond formed prior to assay): almost completely abrogates the effects of Bfl-1
anti-apoptotic effects of Bfl-1 on BAX (Bfl-1 [2]; peptide added concurrently with Bfl-1): somewhat inhibited
molecular weight shift or FITC labeling of BCL-XLΔC (BCL-XLΔC): no molecular weight shift or FITC labeling
disulfide adduct with BFL-1ΔC C4S/C19S/C55S (lacks C55) (BFL-1ΔC [3]): no adduct
molecular weight shift (disulfide adduct) of wild-type BFL-1ΔC (BFL-1ΔC [4]): shift in the molecular weight
disulfide adduct with BFL-1ΔC C4S/C19S (only C55 present) (BFL-1ΔC [5]): molecular weight shift
covalent (disulfide) bond formation with Bfl-1, BCL-XL and MCL-1 (Bfl-1 [6]): only Bfl-1 forms a covalent bond
MCL-1ΔNΔC engagement in SA pull-down (GST-MCL-1ΔNΔC): prominent non-covalent capture
